# In patent US20080267882A1, “Imaging compounds, methods of making imaging compounds, methods of imaging, therapeutic compounds, methods of making therapeutic compounds, and methods of therapy” (Stanford University, priority 2007, published 2008):
# Where two headings read alike, the source gives them in different places.
# Key:
# integrin αvβ3 = biological target: T1, integrin αvβ3 (Homo sapiens, UniProt P05106+P06756); test: competitive cell binding assay using ^125I-echistatin on U87MG cells; conditions: for IC50: n=3, read-out: IC50 (inhibition of ^125I-echistatin binding to U87MG cells)
# T1 construct: evaluated using U87MG cells (integrin αvβ3-positive); endogenous in cells; host or cells: U87MG human glioblastoma cells (ATCC)
# Description: Experiments were performed on U87MG human glioblastoma cells with triplicate samples as previously reported.
# In vitro integrin αvβ3-binding affinities and specificities of RGD4, PRGD4 and FPRGD4 were assessed via displacement cell binding assays using ^125I-echistatin as the integrin αvβ3-specific radioligand. Experiments were performed on U87MG human glioblastoma cells by the method previously described (J Nucl Med. 2005;46:1707-1718 J Nucl Med. 2006;47:1172-1180, which is incorporated herein by reference for the corresponding discussion). […] Experiments were performed with triplicate samples.
# Experiments were performed with triplicate samples.
# In vitro integrin-binding affinity and specificity of RGD multimers and DOTA-RGD multimers were assessed via competitive cell binding assays using ^125I-echistatin as the integrin αvβ3-specific radioligand (J Nucl Med. 2005;46:1707-1718, which is incorporated herein by reference for the corresponding discussion). […] Experiments were performed with triplicate samples.
# U87MG cells = test: cell adhesion assay on vitronectin coated plates; type: cell-based, human; conditions: vitronectin coated plates; n=4; read-out: calculated IC50 (inhibition of U87MG cell adhesion)
# Description: Ninety-six well plates were coated with 2 μg/mL of fibronectin or vitronectin (Sigma-Aldrich) in PBS at 4° C. overnight and treated with 2% bovine serum albumin (BSA) for 1 h at 37° C. U87MG cells (human glioblastoma, ATCC; 2×10^5 cells/mL) with various concentrations of RGD multimers (50 nM, 200 nM, 800 nM) in 100 μL serum-free Dulbecco's modified Eagle's medium (DMEM) containing 0.1% BSA were incubated for 20 min at 37° C. The resulting mixture was added to the plates and incubated for 1 h at 37° C. Plates treated with BSA only were used as negative control. After removal of the medium by aspiration, 0.04% crystal violet solution was added and incubated for 10 min at room temperature. The wells were washed three times with PBS and 20 μL Triton X-100 were added for permeabilization. Distilled water (80 μL) was then added and the number of adherent cells was assessed with a microplate reader (Tecan; measurement wavelength: 550 nm; reference wavelength: 630 nm).
# [1] = system: MDA-MB-435 tumor-bearing mice; test: biodistribution of ^3H-PTX and ^3H-RGD2−PTX in MDA-MB-435 tumor-bearing mice; type: in vivo, mouse
# Description: (§1) All animal experiments were performed in compliance with the guidelines for the care and use of research animals established by the Stanford University's Animal Studies Committee. Female athymic nude mice (nu/nu) were obtained from Harlan (Indianapolis, Ind.) at 6-8 weeks of age and were kept under sterile conditions. The MDA-MB-435 cells were harvested and suspended in sterile PBS at a concentration of 5×10^7 cells/mL. Viable cells (5×10^6) in PBS (100 μL) were injected orthotopically in the right mammary fat pad. […] Tumor growth was followed by caliper measurements of perpendicular measures of the tumor. The tumor volume was estimated by the formula: tumor volume=a×(b^2)/2, where a and b are the tumor length and width respectively in mm.
# (§2) The animals were euthanized at 4, 24 and 48 h post injection and major organs and tissues were collected correspondingly. Approximately 100 mg of the tissue was added to glass scintillation vials containing 1 mL of tissue solubilizer SoluEne®-350 (Perkin-Elmer, Waltham, Mass.). These samples were digested at 55° C. for overnight followed by bleaching to obtain the decolorized samples. Chemiluminescence was reduced by the addition of glacial acetic acid. Hionic-Fluor liquid scintillation cocktail (Perkin-Elmer) was added to all samples, which were then counted with a Tri-Carb 2800TR liquid scintillation Analyzer (Perkin-Elmer).
# [2] = as above; type: in vivo, mouse; conditions: female, athymic nude (nu/nu), mouse, iv, 2.9 umol/kg, total radioactivity
# Description: as §1, §2
# [3] = tumor/kidney, read-out: tumor/kidney ratio
# [4] = tumor/liver, read-out: tumor/liver ratio
# [5] = tumor/muscle, read-out: tumor/muscle ratio
smiles,measurement,setting,value
"N=C(N)NCCC[C@@H]1NC(=O)[C@H](CCCCNC(=O)CC[C@H](NC(=O)CC[C@H](NC(=O)COCCOCCOCCNC(=O)c2ccc(F)cc2)C(=O)N[C@@H](CCC(=O)NCCCC[C@@H]2NC(=O)[C@@H](Cc3ccc(O)cc3)NC(=O)[C@H](CC(=O)O)NC(=O)CNC(=O)[C@H](CCCNC(=N)N)NC2=O)C(=O)NCCCC[C@@H]2NC(=O)[C@@H](Cc3ccc(O)cc3)NC(=O)[C@H](CC(=O)O)NC(=O)CNC(=O)[C@H](CCCNC(=N)N)NC2=O)C(=O)NCCCC[C@@H]2NC(=O)[C@@H](Cc3ccc(O)cc3)NC(=O)[C@H](CC(=O)O)NC(=O)CNC(=O)[C@H](CCCNC(=N)N)NC2=O)NC(=O)[C@@H](Cc2ccc(O)cc2)NC(=O)[C@H](CC(=O)O)NC(=O)CNC1=O [FPRGD4, FB-NH-mini-PEG-CO-E{E[c(RGDyK)]2}2]",IC50,integrin αvβ3; Example 2,37.7 ± 7 nM
"N=C(N)NCCC[C@@H]1NC(=O)[C@H](CCCCNC(=O)CC[C@H](NC(=O)CC[C@H](NC(=S)Nc2ccc(C[C@H]3CN(CC(=O)O)CCN(CC(=O)O)CCN3CC(=O)O)cc2)C(=O)N[C@@H](CCC(=O)NCCCC[C@@H]2NC(=O)[C@@H](Cc3ccc(O)cc3)NC(=O)[C@H](CC(=O)O)NC(=O)CNC(=O)[C@H](CCCNC(=N)N)NC2=O)C(=O)NCCCC[C@@H]2NC(=O)[C@@H](Cc3ccc(O)cc3)NC(=O)[C@H](CC(=O)O)NC(=O)CNC(=O)[C@H](CCCNC(=N)N)NC2=O)C(=O)NCCCC[C@@H]2NC(=O)[C@@H](Cc3ccc(O)cc3)NC(=O)[C@H](CC(=O)O)NC(=O)CNC(=O)[C@H](CCCNC(=N)N)NC2=O)NC(=O)[C@@H](Cc2ccc(O)cc2)NC(=O)[C@H](CC(=O)O)NC(=O)CNC1=O [NOTA-RGD4, NOTA-E{E[c(RGDyK)]2}2]",fold higher integrin αvβ3 affinity than NOTA-RGD1,integrin αvβ3; Example 5,13 fold
same,fold increase of integrin avidity compared to NOTA-RGD2,integrin αvβ3; Example 5,3 fold
same,IC50,integrin αvβ3; Example 5,16.1 ± 3.1 nM
"N=C(N)NCCC[C@@H]1NC(=O)[C@H](CCCCNC(=O)CC[C@H](NC(=O)CC[C@H](NC(=O)COCCOCCOCCN)C(=O)N[C@@H](CCC(=O)NCCCC[C@@H]2NC(=O)[C@@H](Cc3ccc(O)cc3)NC(=O)[C@H](CC(=O)O)NC(=O)CNC(=O)[C@H](CCCNC(=N)N)NC2=O)C(=O)NCCCC[C@@H]2NC(=O)[C@@H](Cc3ccc(O)cc3)NC(=O)[C@H](CC(=O)O)NC(=O)CNC(=O)[C@H](CCCNC(=N)N)NC2=O)C(=O)NCCCC[C@@H]2NC(=O)[C@@H](Cc3ccc(O)cc3)NC(=O)[C@H](CC(=O)O)NC(=O)CNC(=O)[C@H](CCCNC(=N)N)NC2=O)NC(=O)[C@@H](Cc2ccc(O)cc2)NC(=O)[C@H](CC(=O)O)NC(=O)CNC1=O [PRGD4, NH2-mini-PEG-CO-E{E[c(RGDyK)]2}2]",IC50,integrin αvβ3; Example 2,46.5 ± 5.3 nM
"N=C(N)NCCC[C@@H]1NC(=O)[C@H](CCCCNC(=O)CC[C@H](N)C(=O)NCCCC[C@@H]2NC(=O)[C@@H](Cc3ccc(O)cc3)NC(=O)[C@H](CC(=O)O)NC(=O)CNC(=O)[C@H](CCCNC(=N)N)NC2=O)NC(=O)[C@@H](Cc2ccc(O)cc2)NC(=O)[C@H](CC(=O)O)NC(=O)CNC1=O [RGD2, E[c(RGDyK)]2, reference compound]",IC50,U87MG cells,700 nM
CC(=O)O[C@H]1C(=O)[C@@]2(C)[C@H]([C@H](OC(=O)c3ccccc3)[C@]3(O)C[C@H](OC(=O)[C@H](OC(=O)CCC(=O)N[C@@H](CCC(=O)NCCCC[C@@H]4NC(=O)[C@@H](Cc5ccc(O)cc5)NC(=O)[C@H](CC(=O)O)NC(=O)CNC(=O)[C@H](CCCNC(=N)N)NC4=O)C(=O)NCCCC[C@@H]4NC(=O)[C@@H](Cc5ccc(O)cc5)NC(=O)[C@H](CC(=O)O)NC(=O)CNC(=O)[C@H](CCCNC(=N)N)NC4=O)[C@@H](NC(=O)c4ccccc4)c4ccccc4)C(C)=C1C3(C)C)[C@]1(OC(C)=O)CO[C@@H]1C[C@@H]2O [^3H-RGD2−PTX],"tissue concentration, Blood",[1]; 4 h,101.7 ± 30.8 ng/g
same,"tissue concentration, Heart",[1]; 4 h,228.7 ± 29.8 ng/g
same,"tissue concentration, Intestine",[1]; 4 h,127.8 ± 20.3 ng/g
same,"tissue concentration, Kidney",[1]; 4 h,1421.6 ± 289.8 ng/g
same,"tissue concentration, Liver",[1]; 4 h,1252.9 ± 109.9 ng/g
same,"tissue concentration, Lung",[1]; 4 h,300.4 ± 30.9 ng/g
same,"tissue concentration, MDA-MB-435 tumor",[1]; 4 h,357.5 ± 62.62 ng/g
same,"tissue concentration, Muscle",[1]; 4 h,125.1 ± 24.0 ng/g
same,"tissue concentration, Skin",[1]; 4 h,144.1 ± 15.9 ng/g
same,"tissue concentration, Spleen",[1]; 4 h,322.3 ± 59.3 ng/g
same,"tissue concentration, Stomach",[1]; 4 h,119.0 ± 16.7 ng/g
same,tumor/muscle ratio,[1]; 4 h,2.86
same,"tissue concentration, Liver","[1]; 4 h, listed as 3H-RGD2-PTX",1252.9 ± 109.9 ng/g
same,"tissue concentration, MDA-MB-435 tumor","[1]; 4 h, listed as 3H-RGD2-PTX",357.5 ± 62.6 ng/g
same,"tissue concentration, Blood",[1]; 24 h,143.1 ± 18.0 ng/g
same,"tissue concentration, Heart",[1]; 24 h,170.7 ± 18.6 ng/g
same,"tissue concentration, Intestine",[1]; 24 h,52.1 ± 7.5 ng/g
same,"tissue concentration, Kidney",[1]; 24 h,338.9 ± 22.1 ng/g
same,"tissue concentration, Liver",[1]; 24 h,510.4 ± 28.9 ng/g
same,"tissue concentration, Lung",[1]; 24 h,238.6 ± 75.6 ng/g
same,"tissue concentration, MDA-MB-435 tumor",[1]; 24 h,229.4 ± 50.4 ng/g
same,"tissue concentration, Muscle",[1]; 24 h,81.2 ± 11.4 ng/g
same,"tissue concentration, Skin",[1]; 24 h,87.2 ± 16.1 ng/g
same,"tissue concentration, Spleen",[1]; 24 h,228.7 ± 39.4 ng/g
same,"tissue concentration, Stomach",[1]; 24 h,71.63 ± 9.5 ng/g
same,tumor/muscle ratio,[1]; 24 h,2.82
same,"tissue concentration, MDA-MB-435 tumor","[1]; 24 h, listed as 3H-RGD2-PTX",229.4 ± 50.4 ng/g
same,"tissue concentration, Blood",[1]; 48 h,225.4 ± 12.8 ng/g
same,"tissue concentration, Heart",[1]; 48 h,222.5 ± 16.2 ng/g
same,"tissue concentration, Intestine",[1]; 48 h,50.8 ± 9.5 ng/g
same,"tissue concentration, Kidney",[1]; 48 h,281.8 ± 32.6 ng/g
same,"tissue concentration, Liver",[1]; 48 h,545.3 ± 30.6 ng/g
same,"tissue concentration, Lung",[1]; 48 h,207.8 ± 48.2 ng/g
same,"tissue concentration, MDA-MB-435 tumor",[1]; 48 h,148.8 ± 40.2 ng/g
same,"tissue concentration, Muscle",[1]; 48 h,85.6 ± 28.0 ng/g
same,"tissue concentration, Skin",[1]; 48 h,66.0 ± 9.1 ng/g
same,"tissue concentration, Spleen",[1]; 48 h,227.9 ± 28.2 ng/g
same,"tissue concentration, Stomach",[1]; 48 h,71.7 ± 12.2 ng/g
same,tumor/muscle ratio,[1]; 48 h,1.74
same,"tissue concentration, MDA-MB-435 tumor","[1]; 48 h, listed as 3H-RGD2-PTX",148.8 ± 40.2 ng/g
same,tissue to tissue ratio at 4 h,[2]; [3],0.25
same,tissue to tissue ratio at 24 h,[2]; [3],0.68
same,tissue to tissue ratio at 48 h,[2]; [3],0.53
same,tissue to tissue ratio at 4 h,[2]; [4],0.29
same,tissue to tissue ratio at 24 h,[2]; [4],0.45
same,tissue to tissue ratio at 48 h,[2]; [4],0.27
same,tissue to tissue ratio at 4 h,[2]; [5],2.86
same,tissue to tissue ratio at 24 h,[2]; [5],2.82
same,tissue to tissue ratio at 48 h,[2]; [5],1.74
